Experimental data published in patent US20210032312A1 (Janssen / Centocor, published 2021).

B1: P283FR9P1366_D8 (designed binder)
chain: LPAPKNLVVSRVTEDSARLSWTAPDAAFDSFEIAYPEIPIAGEAIVLTVPGSERSYDLTGLKPGTEYFVIIYGVKGGDWSDPLSAIFTT
notes: FN3 domain
B2: P283FR9P1366_D12 (designed binder)
chain: LPAPKNLVVSRVTEDSARLSWTAPDAAFDSFDIAYPEWPLGGEAIVLTVPGSERSYDLTGLKPGTEYWVIILGVKGGDQSWPLSAIFTT
notes: FN3 domain
B3: P283FR9P1366_E11 (designed binder)
chain: LPAPKNLVVSRVTEDSARLSWTAPDAAFDSFDIAYPEWPVPGEAIVLTVPGSERSYDLTGLKPGTEYWVIIKGVKGGNISWPLSAIFTT
notes: FN3 domain
B4: P283FR9P1366_F5 (designed binder)
chain: LPAPKNLVVSRVTEDSARLSWTAPDAAFDSFDIGYPEWPIKGEAIVLTVPGSERSYDLTGLKPGTEYWVIIWGVKGGDRSEPLSAIFTT
notes: FN3 domain
B5: P283FR9P1366_F8 (designed binder)
chain: LPAPKNLVVSRVTEDSARLSWTAPDAAFDSFAIAYPEIAKWGEAIVLTVPGSERSYDLTGLKPGTEYFVIIYGVKGGVHSFPLSAIFTT
notes: FN3 domain
B6: P283FR9P1366_F9 (designed binder)
chain: LPAPKNLVVSRVTEDSARLSWTAPDAAFDSFHIFYPELPIAGEAIVLTVPGSERSYDLTGLKPGTEYWVNISGVKGGYESWPLSAIFTT
notes: FN3 domain
B7: P283FR9P1366_G1 (designed binder)
chain: LPAPKNLVVSRVTEDSARLSWTAPDAAFDSFYISYPELPVEGEAIVLTVPGSERSYDLTGLKPGTEYWVIIWGVKGGATSEPLSAIFTT
notes: FN3 domain
B8: P283FR9P1366_G5 (designed binder)
chain: LPAPKNLVVSRVTEDSARLSWTAPDAAFDSFQIAYPEYPALGEAIVLTVPGSERSYDLTGLKPGTEYFVIIIGVKGGDESFPLSAIFTT
notes: FN3 domain
B9: P283FR9P1366_G8 (designed binder)
chain: LPAPKNLVVSRVTEDSARLSWTAPDAAFDSFDIAYPELPIGGEAIVLTVPGSERSYDLTGLKPGTEYFVVIYGVKGGIHSAPLSAIFTT
notes: FN3 domain
B10: P283FR9P1366_H3 (designed binder)
chain: LPAPKNLVVSRVTEDSARLSWTAPDAAFDSFAIAYPEWPIKGEAIVLTVPGSERSYDLTGLKPGTEYWVVIYGVKGGVFSEPLSAIFTT
notes: FN3 domain
B11: P283FR9P1366_H6 (designed binder)
chain: LPAPKNLVVSRVTEDSARLSWTAPDAAFDSFDIAYPEWPVTGEAIVLTVPGSERSYDLTGLKPGTEYWVIIFGVKGGERSWPLSAIFTT
notes: FN3 domain
B12: P283FR9P1366_H7 (designed binder)
chain: LPAPKNLVVSRVTEDSARLSWTAPDAAFDSFQIAYPEYPALGEAIVLTVPGSERSYDLTGLKPGTEYFVIIAGVKGGIQSWPLSAIFTT
notes: FN3 domain
B13: P283FR9P1366_H8 (designed binder)
chain: LPAPKNLVVSRVTEDSARLSWTAPDAAFDSFYISYPEWPGSGEAIVLTVPGSERSYDLTGLKPGTEYAVFIWCVKGGWLSDPLSAIFTT
notes: FN3 domain
B14: P283FR9P1366_H9 (designed binder)
chain: LPAPKNLVVSRVTEDSARLSWTAPDAAFDSFEIAYPEWPVNGEAIVLTVPGSERSYDLTGLKPGTEYWVVIWGVKGGVNSYPLSAIFTT
notes: FN3 domain
B15: P283FR9P1366_H10 (designed binder)
chain: LPAPKNLVVSRVTEDSARLSWTAPDAAFDSFNIAYPEWPPEGEAIVLTVPGSERSYDLTGLKPGTEYFVVIYGVKGGHLSDPLSAIFTT
notes: FN3 domain
B16: P283GR7P1367_A11 (designed binder)
chain: LPAPKNLVVSRVTEDSARLSWTAPDAAFDSFDIAYPEWPTDGEAIVLTVPGSERSYDLTGLKPGTEYFVIIYGVKGGSYSEPLSAIFTT
notes: FN3 domain
B17: P283GR7P1367_B7 (designed binder)
chain: LPAPKNLVVSRVTEDSARLSWTAPDAAFDSFDIAYPEWPTDGEAIVLTVPGSERSYDLTGLKPGTEYFVVIYGVKGGHWSYPLSAIFTT
notes: FN3 domain
B18: P283GR7P1367_C9 (designed binder)
chain: LPAPKNLVVSRVTEDSARLSWTAPDAAFDSFLIGYPEWPLGGEAIVLTVPGSERSYDLTGLKPGTEYWVIIYGVKGGEYSDPLSAIFTT
notes: FN3 domain
B19: P283GR7P1367_F5 (designed binder)
chain: LPAPKNLVVSRVTEDSARLSWTAPDAAFDSFDIAYPEWPTDGEAIVLTVPGSERSYDLTGLKPGTEYFVIIYGVKGGALSRPLSAIFTT
notes: FN3 domain
B20: P283GR7P1367_H2 (designed binder)
chain: LPAPKNLVVSRVTEDSARLSWTAPDAAFDSFDIAYPEWPTDGEAIVLTVPGSERSYDLTGLKPGTEYFVVIYGVKGGGRSYPLSAIFTT
notes: FN3 domain
B21: P283GR7P1367_H9 (designed binder)
chain: LPAPKNLVVSRVTEDSARLSWTAPDAAFDSFDIAYPEWPTDGEAIVLTVPGSERSYDLTGLKPGTEYFVVIYGVKGGGRSAPLSAIFTT
notes: FN3 domain
B22: P283FR9P1366_H5 (designed binder)
chain: LPAPKNLVVSRVTEDSARLSWTAPDAAFDSFIYIENKVNGEAIVLTVPGSERSYDLTGLKPGTEYHVTIGGVKGGTESNTLSAIFTT
notes: FN3 domain
B23: P283GR7P1367_B4 (designed binder)
chain: LPAPKNLVVSRVTEDSARLSWTAPDAAFDSFSILYYELPPSGEAIVLTVPGSERSYDLTGLKPGTEYTVSIFGVKGGDNSFPLSAIFTT
notes: FN3 domain

Columns and labels:
[1] = molecular target: T1, cynomolgus monkey CD8 alpha on primary cynomolgus CD8+ T cells (cynomolgus monkey, UniProt P01732 23-235 (human entry)); test: flow cytometry, cyno CD8+ T cells
T1 construct: also called Cyno CD8alpha; cyno CD8A
T1 sequence (P01732 other isoform, or with tags, fused parts or gaps limits assumed): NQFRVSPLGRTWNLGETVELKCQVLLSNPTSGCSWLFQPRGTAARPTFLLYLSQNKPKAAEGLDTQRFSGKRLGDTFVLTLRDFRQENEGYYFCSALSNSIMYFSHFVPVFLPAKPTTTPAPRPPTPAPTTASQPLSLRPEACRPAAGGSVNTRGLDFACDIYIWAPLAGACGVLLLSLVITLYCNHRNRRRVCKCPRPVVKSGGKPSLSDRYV
Protocol: (§1) Binding of the 190 ELISA hits to human and cynomologous monkey primary CD8 T cells was assessed by flow cytometry. The FN3 domain molecules were diluted to 2 μM and 0.2 μM in PBS and incubated with human or cynomologous monkey CD8+ T cells in 96-well format. After 1 hour at 4 C, the cells were washed once with PBS and then resuspended with an anti-FN3 domain antibody (PAB25) solution. Following this incubation, the cells were washed twice with PBS and a PE conjugated secondary antibody and a viability dye were added. Finally, cells were washed and resuspended in PBS for flow cytometric analysis using a BD Canto Instrument. Cells were gating on live cells and median fluorescence intensity of the bound Centyrins (PE channel) was calculated using Cytobank software.

[2] = molecular target: T2, human CD8A-Fc (in house) (human, UniProt P01732 22-182, limits assumed); test: SPR (ProteOn), captured hCD8A-Fc
T2 construct: captured by goat anti-human Fc on the ProteOn chip; also called hCD8A-Fc; recombinant human CD8 alpha; not shown: linker/tag and Fc of human IgG1
T2 sequence (P01732 22-182 limits assumed): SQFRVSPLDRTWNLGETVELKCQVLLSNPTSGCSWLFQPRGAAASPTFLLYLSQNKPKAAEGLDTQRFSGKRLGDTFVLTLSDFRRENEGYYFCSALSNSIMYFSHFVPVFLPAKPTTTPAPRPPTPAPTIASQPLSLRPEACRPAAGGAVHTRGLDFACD

[3] = molecular target: T3, human CD8 alpha (CD8A) on primary human CD8+ T cells (human, UniProt P01732 22-235); test: flow cytometry, human CD8+ T cells
T3 construct: whole, on cells; also called hCD8A
T3 sequence (P01732 22-235): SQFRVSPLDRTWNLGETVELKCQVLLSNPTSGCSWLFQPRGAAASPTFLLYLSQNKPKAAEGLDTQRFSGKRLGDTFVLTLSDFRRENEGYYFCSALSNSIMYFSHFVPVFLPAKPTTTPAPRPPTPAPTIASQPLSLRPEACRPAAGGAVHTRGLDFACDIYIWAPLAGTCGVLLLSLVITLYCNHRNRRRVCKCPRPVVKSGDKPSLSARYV
Protocol: as §1

| Binder | Cyno T-cell Binding 0.2 uM (MFI) [1] [MFI] | Cyno T-cell Binding 2 uM (MFI) [1] [MFI] | koff [2] [s⁻¹] | Human T-cell Binding 0.2 uM (MFI) [3] [MFI] | Human T-cell Binding 2 uM (MFI) [3] [MFI] |
| --- | --- | --- | --- | --- | --- |
| B1 | 2300 | 28200 | 0.00134 | 413 | 3390 |
| B2 | 8140 | 87600 | 0.00176 | 1530 | 27800 |
| B3 | 1470 | 14200 | 0.00141 | 567 | 4590 |
| B4 | 4700 | 46400 | 0.00104 | 720 | 6880 |
| B5 | 2270 | 27000 | 0.00403 | 369 | 3970 |
| B6 | 24600 | 84300 | 0.000494 | 6300 | 33600 |
| B7 | 4980 | 39800 | 0.000872 | 650 | 3600 |
| B8 | 369 | 36400 | 0.000705 | 261 | 8450 |
| B9 | 3130 | 37100 | 0.00108 | 574 | 6860 |
| B10 | 3170 | 40800 | 0.00121 | 632 | 7670 |
| B11 | 19000 | 81500 | 0.000205 | 7130 | 43900 |
| B12 | 1240 | 24400 | 0.00177 | 567 | 13800 |
| B13 | 17100 | 61300 | 0.000175 | 4540 | 24900 |
| B14 | 2880 | 36500 | 0.00198 | 693 | 8570 |
| B15 | 13900 | 75200 | 0.00063 | 2410 | 25000 |
| B16 | 5670 | 66700 | 0.000635 | 1030 | 11300 |
| B17 | 3130 | 37500 | 0.00127 | 739 | 10900 |
| B18 | 5550 | 67000 | 0.00221 | 896 | 11000 |
| B19 | 2050 | 29000 | 0.00108 | 601 | 4560 |
| B20 | 864 | 4210 | 0.00235 | 390 | 1620 |
| B21 | 918 | 6120 | 0.00147 | 434 | 1710 |
| B22 | 477 | 5090 | 0.00318 | 252 | 3140 |
| B23 | 367 | 396 | 0.00518 | 446 | 8300 |
